Experimental data from US20220195015A1 (published 2022).

B1: C707 (antibody, V domains shown)
VH: EVQLVESGGGLVKPGGSLRLSCAASGFTFSSYSMNWVRQAPGKGLAWVSSISSSNNIIYYADSVKGRFTISRDDAKDSLYLHMKSLRADDTAVYFCARVPSWAPYQLLPGPFDYWGQGILVTVSS
VL: IRMTQSPSSLSASVGDRVTITCQASQAIASYLSWYQHKPGRAPKLLIYDASNLEIGVPSRFSGSGSGTDFTFTISSLQSEDNATYYCQQYESLPGTFGGGTKVEIK
B2: C046 (antibody, V domains shown)
VH: EVQLVESGGGLAQPGRSLRLSCAASGFTFDDYAMHWVRQAPGKGLEWVSGINWNSGSLGYADSVKGRFTISRGIAKNSLYLQMNSLRPEDTAFYYCAKAGVRGIAAAGPDLNFDYWGQGTLVTVSS
VL: EIVLTQSPATLSLSPGERATLSCRASQSVSSYLAWYQQKPGQAPRLLIYDASNRATGIPARFIGSGSGTDFTLTISSLEPEDFAVYYCQQRITFGQGTRLEIK
B3: C704 (antibody, V domains shown)
VH: VQLVESGGGVVQPGRSLRLSCAASGFTFSRYGMHWVRQAPGKGLEWVAVSSYDGSNEYYANSVKGRFTISRDNSKNTLYLQMNSLRAEDTAVYYCAKTGASYCGGDCPFHFDYWGQGTLVTVSS
VL: IRMTQSPSSLSASVGDRVTITCQASQDINNYLNWYQQKPGKAPKLLIYDASDLETGVPSRFSGGGSGTDFTFTISSLQPEDIATYYCQHYNNLPITFGQGTRLEIK
B4: C047 (antibody, V domains shown)
VH: QVQLQESGPGLVKPSETLSLTCTVSGGSISSTTYYWDWIRQSPGKGLEWIGSIFYTGITYYSPSLKSRVTISVDTSKNQFSLRLNSMTAADTAVYYCARRLRQLWFGPWFDPWGQGTLVTVSS
VL: QSALTQPPSASGSPGQSVTISCTGTRSDVGDYNYVSWYQQHPDKAPKLIIYEVTKRPSGVPDRFSGSKSGNTASLTVSGLQAEDEADYYCSSYAGSNNVMFGGGTKLTVL
B5: C710 (antibody, V domains shown)
VH: QVQLQESGPGLVKPSETLSLTCIVSGGSINSTTYYWDWIRQSPGKGLEWIGSIFYTGITYYSPSLKTRVTISVDTSKNQFSLRLNSMTAADTAVYYCARRLRQLWFGPWFDPWGQGTLVTVSS
VL: QSALTQPPSASGSPGQSVTISCTGTRSDVGDYNYVSWYQQHPDKAPKLIIFEVTKRPSGVPDRFSGSKSGNTASLTVSGLQAEDEADYYCSSYAGSSNVMFGGGTKLTVL
B6: C043 (antibody, V domains shown)
VH: QLVQSGPEVKKPGTSVKVSCKASGFTFYNSAVQWVRQARGQRLEWVGWIVVGSGNTDYAQKFQERVTMTRDLSTNTAYMEVNSLRSEDTAVYYCAAPYCSGGTCLDGFDIWGQGTMVTVSS
VL: EIVLTQSPGTLSLSPGERGTLSCRASQSVRSNYLAWYKQRPGQAPRLLVYGASSRATGIPDRFSGSGSGTDFTLTISRLEPEDFAVYYCQQYGSSPWTFGQGTKVEIK
B7: C044 (antibody, V domains shown)
VH: EVQLVESGGGLVQPGGSLRLSCAASGFTFSSYSMNWVRQAPGKGLEWVSYISSSSSTIYYADSVKGRFTISRDNAKNSLYLQMNSLRDEDTAVYYCAREAHDGALTDYGDYLNWFDPWGQGTLVTVSS
VL: SYELTQPPSVSVAPGKTARITCGGNNIGSKSVHWYQQKPGQAPVLVIYYDSDRPSGIPERFSGSNSGNTATLTISRVEAGDEADYYCQVWDSSSDHLYWVFGGGTKLTVL
B8: C045 (antibody, V domains shown)
VH: EVQLVESGGGLVQPGGSLRLSCAASGFTFSTYSMNWVRQAPGKGLEWVSYISSSSSTIHYADSVKGRFTISRDNAKNSLYLQMNSLRDEDTAVYYCAREAHDGALTDYGDYLNWFDPWGQGTLVTVSS
VL: SYELTQPPSVSVAPGKTARITCGGTNIGSKNVHWYQQKPGQAPVLVIYYDNDRPSGIPERFSGSNSGNTATLTISRVEAGDEADYYCQVWDTTSDHFYWVFGGGTKLTVL
B9: C703 (antibody, V domains shown)
VH: EVQLLESGGGLVQPGGSLRLSCAGSGFTFSHYALSWVRQAPGKGLEWVSCISGTGGNSHYADSVKGRFTSSRDNSKNILYLQMNSLRAEDTAVYFCAKGGDFWSGYLIPFDSWGQGTLVTVSS
VL: SYELTQSPSVSVAPGKTARITCGGDSIGSKNVHWYQQKPGQAPVLVMYYDNDRPSGIPERFSGYNSGNTATLSISRVEAGDEADYYCLVWDGSGDPWVFGGGTKLTVL
B10: C709 (antibody, V domains shown)
VH: QVQLVQSGAEVRKPGASVKVSCMASGYTFNTYDINWVRQGTGQGLEWMGWMNPNSGNTGHAQKFQGRVAMTVNTSMNTAYMELSSLRSEDTAVYYCARGADMLNVAVGADFDYWGQGTLVTVSS
VL: QSALTQPPSASGSPGQSVTISCTGTSSDVGGYNFVSWFQQHPGKAPKLMIYEVSKRPSGVPDRFSGSKSANTASLTVSGLQAEDEADYFCSSYAGSNNWVFGGGTKLTVL
B11: C098 (antibody, V domains shown)
VH: EVQLVESGGGLIQPGGSLRLSCAASGFTVSSNYMSWVRQAPGKGLEWVSVIYSGGSTYYADSVKGRFTISRDNSKNTLYLQMNSLRAEDTAVYYCARDLYSSGGTDIWGQGTMVTVSS
VL: not shown
B12: C099 (antibody, V domains shown)
VH: EVQLVESGGGLIQPGGSLRLSCAASGITVSSNYMSWVRQAPGKGLEWVSVMYAGGSTFYADSVKGRFTISRDDSKNTLFLQMNSLRAEDTAIYYCARDLYSSGGTDIWGQGTMVTVSS
VL: EIVLTQSPGTLSLSPGERATLSCRASQSIGSSYLAWYQQKPGLAPRLLIYGASRRATGIPDKFSGSGSGADFTLTISRLEPEDFAVYYCQQYGSSPGTFGQGTKVEIK
B13: C097 (antibody, V domains shown)
VH: QVQLQESGPGLVKPSQTLSLTCTVSGGSISSGPYYWSWIRQHPGKGLEWIGYIYYSGSTYYNPSLKSRVTISVDTSKKQFSLNLNSVTAADTAVYYCARVWQYYDSTGSFDYWGQGTLVTVSS
VL: DIVMTQSPLSLPVTPGEPASISCRSSRGLLHSNGYNYLDWYLQKPGQSPQLLIYLGSNRASGVPDRFSGSGSVTDFTLNISRVEAEDVGVYYCMQALQTPFTFGPGTKVDIK
B14: C708 (antibody, V domains shown)
VH: EVQLVESGGGLVQPGGSLRLSCAASGFSFSTYWMSWVRQAPGKGLEWVADIKQDGSEKYFVDSVKGRFTISRDNAKNSLYLHLNSLRAEDTAVYYCAREMAGSGNYYWFGYGMDVWGQGTTVTVSS
VL: IRMTQSPSSVSASVGDRVTITCRASQGISSWLAWYQQKPGKAPKLLIYAASSLQSGVPSRFSGSESGTDFTLTISSLQPEDFATYYCQQANSFPLTFGGGTKVEIK
B15: C049 (antibody, V domains shown)
VH: QVQLQESGPGLVKPSETLSLTCTVSGGSVSSGTFYWSWIRQPPGKGLEWIGYIHYSGSTNYNPSLKSRVTISVDTSKNQFSLRLSSVTAADTAVYYCARESFYYDRSGYYGSDAFDIWGQGTMVTVSS
VL: DIQMTQSPSTLSSSVGDRVTITCRASQNISRWLAWYQQKPGKAPKLLIYKASTLESGVPSRFSGSGSGTKFTLTISSLQPDDFATYYCQQYNSYLYTFGQGTKLEIK
B16: C054 (antibody, V domains shown)
VH: EVQLVESGGGLIQPGGSLRLSCAASGFTVSNNYMSWVRQAPGKGLEWVSVIYSGGSTYDADSVKGRFTISRDNSKNTLYLQMNSLSAEDTAVYYCAREGDVEGYYDFWSGYSRDRYYFDYWGQGTLVTVSS
VL: QSALTQPASVSGSPGQSITISCTGTSSDVGGYNYVSWYQQHPGKAPKLMIYDVSNRPSGVSNRFSGSKSGNTASLTISGLQAEDEADYYCSSYTSSSARVFGTGTKVTVL
B17: C052 (antibody, V domains shown)
VH: EVQLVESGGGLIRPGGSLRLSCAASGFSVSNNYMSWVRQAPGKGLEWVSVIYSGGTTYYADSVKGRFNISRDNSKNTVYLQMNSLRAEDTAVYYCAREGDVEGYYDFWSGYSRDRYYFDYWGQGALVTVSS
VL: QSALTQPASVSGSPGQSITISCTGTSSDVGGYNYVSWYQQHPGKAPKLMIYDVSNRPSGVSNRFSGSKSGNTASLTISGLQAEDEADYYCNSYTSNNTRVFGTGTKVTVL
B18: C144 (antibody, V domains shown)
VH: EVQLVESGGGLIQPGGSLRLSCAASGFTVSNNYMSWVRQAPGKGLEWVSVIYSGGSTYYADSVKGRFTISRDKSKNTLYLQMNRLRAEDTAVYYCAREGEVEGYNDFWSGYSRDRYYFDYWGQGTLVTVSS
VL: QSALTQPASVSGSPGQSITISCTGTSSDVGGYNYVSWYQQHPGKAPKLMIYDVSNRPSGVSNRFSGSKSGNTASLTISGLQAEDEADYYCSSYTSSSTRVFGTGTKVTVL
B19: C706 (antibody, V domains shown)
VH: EVQLVESGGGLVKPGGSLRLSCAASGFTFSNVWMSWVRQAPGKGLEWVGRIKSKIDGGTTEYAAPVKGRFIISRDDSKNTLSLQMNSLKTEDTAVYYCTTDHGREPPVHWGQGTLVTVSS
VL: EIVLTQSPGTLSLSPGERASLSCRARQSVYSNYLAWYQHKSGQAPRLLFYGASSRATDIPDRFSASGSGTDFTLTISRLEPEDFAVYYCLQYGPSPTFGPGTRLEIK
B20: C048 (antibody, V domains shown)
VH: VQLQESGPGLVKPSETLSLTCAVSGGSVSSGNYYWNWIRQPPGKGLEWIGYIYYSGSTNYNPSLKSRVTISVDTSKNQFSLKLNSVTAADTAVYHCARETYYYDSSGYYISDAFDIWGQGTMVTVSS
VL: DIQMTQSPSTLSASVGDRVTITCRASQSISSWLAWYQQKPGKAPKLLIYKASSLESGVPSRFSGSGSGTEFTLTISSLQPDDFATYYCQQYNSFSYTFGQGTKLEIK
B21: C095 (antibody, V domains shown)
VH: VQLVEAGGGVVQPGRSLRLSCAASGLAFSIYGMHWVRQAPGKGLEWVAIVAQDGSKKYYADSVKGRFTISRDNSKNTLYLEMNSLRTEDTAVYYCVKEGRPSDTVVVVAFDYWGQGSLVTVSS
VL: DIQLTQSPSSLSASVGDRVTITCRASQSISNYLNWYQQKPGKAPKVIIYAASSLQSGVPSRFSGSGSGTDFTLTISSLQPEDFATYYCQQSHSIPRTFGQGTKVEIK
B22: C096 (antibody, V domains shown)
VH: EVQLVESGGGLVKPGGSLRLSCVASGFTFRNAWMNWVRQAPGKGLEWVGRIKANSDGGTIDYAEPVQGRFTISREDSRNSLYLQMNSLKTEDTAVYYCTTGPQYDDFGHSYIVDSWGPGTLVTVSS
VL: DIVMTQSPLSLPVTLGEPASISCRSSQSLLHSNGFHFLEWYLQKPGQSPQLLIYVGSNRASGVPDRFSGSGSGTDFTLKISRVEAEDVGVYYCMQTLQTPLTFGGGTKVEIK

Each binder was assayed against SARS-CoV-2 spike receptor binding domain (RBD), wild type (SARS-CoV-2, UniProt P0DTC2 319-539) (assay: ELISA on coated RBD protein).

In order of rising EC50:
1. B21  1.1 ng/mL
2. B17  1.23 ng/mL
3. B16  1.58 ng/mL
4. B18  1.83 ng/mL
5. B12  2.45 ng/mL
6. B13  3.45 ng/mL
7. B2  4.02 ng/mL
8. B15  4.09 ng/mL
9. B20  4.8 ng/mL
10. B22  5.18 ng/mL
11. B8  7 ng/mL
12. B10  7.56 ng/mL
13. B11  7.7 ng/mL
14. B9  10.9 ng/mL
15. B4  11.1 ng/mL
16. B6  12.1 ng/mL
17. B3  13.4 ng/mL
18. B5  17.8 ng/mL
19. B1  26 ng/mL
20. B19  73.5 ng/mL
21. B14  130 ng/mL
22. B7  1820 ng/mL
